For test [1], the target named is Myc-tagged human long carboxy-terminal CaV2.1 (CaV2.1-6myc) (human) (UniProt O00555). Nature of the test: co-IP; HEK293T cells coexpressing the two proteins, 10 uM MG132 for 24 h; lysates immunoprecipitated with anti-Myc on protein A/G sepharose, 16 h at 4 C; immunoblot. (In western blotting, separated proteins are transferred to a membrane and probed.)
Test [2] concerns the target CaV2.1-F1406C (human). The test is described as above.

CaV2.1-F1406C (human), sequence (O00555 whole entry, stated change not applied): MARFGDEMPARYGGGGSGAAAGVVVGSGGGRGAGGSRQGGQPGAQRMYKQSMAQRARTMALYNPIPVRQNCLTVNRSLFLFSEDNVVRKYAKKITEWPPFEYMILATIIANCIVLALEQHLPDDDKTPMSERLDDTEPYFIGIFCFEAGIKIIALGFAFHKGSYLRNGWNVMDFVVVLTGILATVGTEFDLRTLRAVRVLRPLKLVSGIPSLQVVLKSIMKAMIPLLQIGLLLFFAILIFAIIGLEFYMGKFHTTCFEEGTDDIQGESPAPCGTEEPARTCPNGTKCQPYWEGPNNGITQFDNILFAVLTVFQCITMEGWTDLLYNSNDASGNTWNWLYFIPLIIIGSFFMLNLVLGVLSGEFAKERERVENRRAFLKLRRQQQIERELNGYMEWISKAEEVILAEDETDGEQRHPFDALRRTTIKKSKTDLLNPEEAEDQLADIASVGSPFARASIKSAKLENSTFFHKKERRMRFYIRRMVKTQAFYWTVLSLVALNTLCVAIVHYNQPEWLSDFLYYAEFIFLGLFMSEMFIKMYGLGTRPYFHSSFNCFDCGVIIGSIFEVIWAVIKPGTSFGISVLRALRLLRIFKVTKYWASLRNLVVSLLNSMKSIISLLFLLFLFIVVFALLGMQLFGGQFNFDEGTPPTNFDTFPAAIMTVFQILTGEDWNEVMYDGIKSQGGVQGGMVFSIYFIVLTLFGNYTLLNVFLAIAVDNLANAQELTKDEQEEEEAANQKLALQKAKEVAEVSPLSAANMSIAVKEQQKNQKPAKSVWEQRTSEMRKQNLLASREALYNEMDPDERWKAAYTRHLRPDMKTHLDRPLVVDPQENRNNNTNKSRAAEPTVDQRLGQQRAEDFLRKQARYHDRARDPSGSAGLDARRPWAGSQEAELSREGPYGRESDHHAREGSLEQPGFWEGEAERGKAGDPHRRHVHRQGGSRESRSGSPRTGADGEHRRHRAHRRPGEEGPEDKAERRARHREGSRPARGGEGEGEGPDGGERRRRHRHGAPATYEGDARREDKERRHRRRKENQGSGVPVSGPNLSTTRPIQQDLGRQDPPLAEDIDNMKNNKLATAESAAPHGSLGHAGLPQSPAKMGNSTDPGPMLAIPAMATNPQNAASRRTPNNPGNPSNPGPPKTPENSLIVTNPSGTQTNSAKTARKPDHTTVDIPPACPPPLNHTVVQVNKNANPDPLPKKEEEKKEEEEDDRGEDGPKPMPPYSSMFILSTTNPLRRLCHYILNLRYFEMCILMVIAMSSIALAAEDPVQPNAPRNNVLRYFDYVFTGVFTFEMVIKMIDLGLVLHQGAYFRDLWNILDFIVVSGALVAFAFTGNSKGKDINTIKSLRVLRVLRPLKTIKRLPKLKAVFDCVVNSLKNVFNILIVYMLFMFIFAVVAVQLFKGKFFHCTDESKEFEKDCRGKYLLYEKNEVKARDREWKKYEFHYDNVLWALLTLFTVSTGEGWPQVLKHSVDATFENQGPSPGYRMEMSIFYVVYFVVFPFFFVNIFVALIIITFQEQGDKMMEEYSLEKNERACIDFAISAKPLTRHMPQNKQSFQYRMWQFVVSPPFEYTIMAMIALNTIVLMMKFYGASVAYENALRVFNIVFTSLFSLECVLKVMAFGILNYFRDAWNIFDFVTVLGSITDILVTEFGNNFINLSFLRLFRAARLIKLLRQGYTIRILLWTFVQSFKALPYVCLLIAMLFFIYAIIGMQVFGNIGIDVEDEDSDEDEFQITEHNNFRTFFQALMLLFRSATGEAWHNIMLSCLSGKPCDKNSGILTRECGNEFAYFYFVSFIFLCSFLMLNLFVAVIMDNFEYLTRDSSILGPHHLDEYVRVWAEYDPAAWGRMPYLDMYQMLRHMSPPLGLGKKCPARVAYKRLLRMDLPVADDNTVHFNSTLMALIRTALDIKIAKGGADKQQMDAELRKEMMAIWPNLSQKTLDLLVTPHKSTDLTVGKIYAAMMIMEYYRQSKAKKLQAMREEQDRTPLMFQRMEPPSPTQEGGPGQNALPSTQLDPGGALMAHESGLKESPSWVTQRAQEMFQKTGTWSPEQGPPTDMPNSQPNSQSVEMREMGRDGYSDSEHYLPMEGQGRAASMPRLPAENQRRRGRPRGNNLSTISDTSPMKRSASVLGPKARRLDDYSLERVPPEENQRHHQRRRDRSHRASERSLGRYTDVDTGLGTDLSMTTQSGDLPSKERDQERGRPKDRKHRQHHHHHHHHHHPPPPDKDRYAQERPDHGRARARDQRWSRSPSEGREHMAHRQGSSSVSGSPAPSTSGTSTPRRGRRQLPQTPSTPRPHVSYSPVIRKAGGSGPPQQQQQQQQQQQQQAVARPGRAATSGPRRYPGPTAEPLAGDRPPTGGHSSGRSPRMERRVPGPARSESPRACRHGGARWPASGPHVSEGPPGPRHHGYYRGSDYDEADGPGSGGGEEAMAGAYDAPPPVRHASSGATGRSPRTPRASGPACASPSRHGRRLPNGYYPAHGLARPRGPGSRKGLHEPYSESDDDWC

As to HA-tagged rat Pin1 (HA-Pin1) (enzyme), the normalized coimmunoprecipitated Pin1 protein level (relative to CaV2.1 WT) came to 1 in test [1] and 1.32 in test [2].

Values taken from publication PMC11603662.
